Reference: patent US20220119541A1 (PHARMAEXPLORER, published 2022)
Read-outs that look alike come from different tables or passages of the source.

What was measured:
[1] = molecular target: T1, human GITR (full length, on cells) (human, UniProt Q9Y5U5 26-241); assay: cell-based or functional assay
T1 sequence (looked up): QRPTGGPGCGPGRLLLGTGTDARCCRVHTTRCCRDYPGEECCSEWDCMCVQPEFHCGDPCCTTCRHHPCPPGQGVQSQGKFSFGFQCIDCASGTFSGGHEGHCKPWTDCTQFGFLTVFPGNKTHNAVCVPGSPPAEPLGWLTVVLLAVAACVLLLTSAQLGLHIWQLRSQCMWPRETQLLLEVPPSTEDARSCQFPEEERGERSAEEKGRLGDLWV

[2] = molecular target: T1, human GITR (full length, on cells); assay: cell-based or functional assay; remark: listed apart in the source
[3] = molecular target: T1, human GITR (full length, on cells); assay: flow cytometry (FACS) on 293F-hGITR cells, MFI curve fit
Experimental: (§1) The pIRES plasmid with the monkey-derived GITR full-length gene was transfected into the HEK293 cell line to construct a HEK293 stable cell line containing monkey GITR (herein referred to as HEK293-cGITR stable cell line), wherein the database accession number of the monkey GITR nucleotide sequence is XP_005545180.1. The tool antibody Tab9H6v3 was constructed with reference to the patent (US_2015_0064204_A1). […] The medium was aspirated, and the cells were incubated with chimeric anti-GITR antibody or IgG1 isotype control antibody in PBS+2% FBS for 1 hour so that the antibody binds to the GITR protein expressed on the cell surface. Cells were collected and washed, and then incubated with anti-human antibody conjugated with fluorescent dye at 4° C. for 1 hour. Mean fluorescence intensity (MFI) of chimeric anti-GITR antibodies bound to cells expressing hGITR or cGITR was determined by flow cytometry. The EC50 of the fitting curve was calculated by GraphPad Prism software. The antibody to be tested can bind to human or monkey GITR protein on the cell surface. The data in the table is the average fluorescence intensity values of the cell populations measured by MFI.

[4] = molecular target: T2, monkey GITR (full length, on cells) (monkey); assay: flow cytometry (FACS) on 293F-cGITR cells, MFI curve fit
T2 construct: whole, on cells; also called cGITR
Experimental: as §1

[5] = molecular target: T1, human GITR (full length, on cells); assay: flow cytometry (FACS) on 293F-hGITR cells, MFI curve fit; remark: listed apart in the source
Experimental: as §1

[6] = molecular target: T2, monkey GITR (full length, on cells); assay: flow cytometry (FACS) on 293F-cGITR cells, MFI curve fit; remark: listed apart in the source
Experimental: as §1

cGITR-ECD-hFc [7] = molecular target: T3, cGITR-ECD-hFc (rhesus; human, UniProt F7DDV8 14-149); assay: ELISA, cGITR-ECD-hFc coated on plate, HRP anti-human Fab detection
T3 sequence (F7DDV8 entry or part of it): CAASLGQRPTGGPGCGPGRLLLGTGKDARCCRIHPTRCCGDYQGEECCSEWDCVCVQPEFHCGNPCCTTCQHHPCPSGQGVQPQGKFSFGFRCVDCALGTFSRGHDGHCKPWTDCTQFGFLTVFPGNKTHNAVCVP

hGITR-ECD-hFc [8] = molecular target: T4, hGITR-ECD-hFc (human, UniProt Q9Y5U5 26-161); assay: ELISA, hGITR-ECD-hFc coated on plate, HRP anti-human Fab detection
T4 construct: ECD put first; also called immunogen A; human GITR extracellular domain protein with hFc tag; not shown: human IgG Fc fragment (hFc) of the pCpC vector
T4 chain: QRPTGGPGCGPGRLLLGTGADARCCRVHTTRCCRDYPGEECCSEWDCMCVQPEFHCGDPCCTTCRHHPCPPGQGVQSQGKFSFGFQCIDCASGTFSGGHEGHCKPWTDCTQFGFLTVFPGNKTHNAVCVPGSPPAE
Experimental: (§2) HGITR-ECD-hFc protein and cGITR-ECD-hFc protein were diluted to 1 μg/ml with PBS hydrochloric acid buffer (pH 7.2), and 100 μl dilution was added to 96-well ELISA microplate, and incubated at 4° C. overnight. The microplate was washed three times with 300 μl/well wash buffer PBST (PBS+0.05% Tween-20), 300 μl blocking buffer (PBST+1% BSA) was added to each well, and incubated at room temperature for 2 hours. The plate was washed three times, 100 μl, 10 μg/ml anti-GITR antibody was added to each well, and was incubated at 37° C. for 1 hour. The plate was washed three times, 100 μl horseradish peroxidase (HRP) labeled anti-human Fab secondary antibody was added to each well, and was incubated at 37° C. for half an hour. The plate was washed three times, 100 μl tetramethylbenzidine (TMB) was added to each well. After 15 minutes of color development, 50 μl 1N HCl termination solution was added to each well, and the OD450 value was read with a plate reader. The EC50 of the binding curve was calculated by GraphPad Prism software.

cGITR-ECD-hFc [9] = molecular target: T3, cGITR-ECD-hFc; assay: ELISA, cGITR-ECD-hFc coated on plate, HRP anti-human Fab detection; remark: listed apart in the source
hGITR-ECD-hFc [10] = molecular target: T4, hGITR-ECD-hFc; assay: ELISA, hGITR-ECD-hFc coated on plate, HRP anti-human Fab detection
Experimental: as §2
The binding activity of the engineered fully human anti-GITR antibody to the hGITR-ECD-hFc protein or the cGITR-ECD-hFc protein was detected by an enzyme-linked immunosorbent assay iaccording to the step (1) of Example 5.

hGITR-ECD-hFc [11] = molecular target: T4, hGITR-ECD-hFc; assay: SPR (Biacore T200), hGITR-ECD-hFc immobilised on CM5 chip, antibody as analyte
Experimental: The antigen hGITR-ECD-hFc was immobilized on the chip surface in manual mode using the running buffer HBS-EP+(10 mM HEPES, 150 mM NaCl, 3 mM EDTA, 0.05% P20, pH 7.4). First, a fresh mixture of 50 mM NHS and 200 mM EDC was used to activate the flow cell 4 of the tandem S CM5 sensor chip. The antigen was then diluted to 1 μg/ml with 10 mM NaAC (pH 5.0) and was injected into flow cell 4 for approximately 40 seconds. Finally, 1 M ethanolamine was used to block the remaining active coupling sites.
Buffer flow was maintained for 600 seconds to determine dissociation. To remove the test antibody from the surface, 10 mM Glycine-HCl (pH 1.5) was injected into flow cells 1 and 4 at a flow rate of 10 μ L/min for 30 seconds. The above steps were repeated for each concentration of continuously diluted antibodies.
The KD value of each antibody was evaluated using Biacore T200 evaluation software 3.0, where flow cell 1 was used as a reference flow cell.

Binder | Activation of NF-κB activity, EC50 (nM), Coupling [1] [nM] | Activation of NF-κB activity, EC50 (nM), Non-coupling [1] [nM] | Activation of NF-κB activity, EC50 (nM), Coupling [2] [nM] | Activation of NF-κB activity, EC50 (nM), Non-coupling [2] [nM] | EC50 [3] [nM] | EC50 [4] [nM] | EC50 [5] [nM] | EC50 [6] [nM] | EC50 (cGITR-ECD-hFc [7]) [nM] | EC50 (hGITR-ECD-hFc [8]) [nM] | EC50 (cGITR-ECD-hFc [9]) [nM] | EC50 (hGITR-ECD-hFc [10]) [nM] | Kd (hGITR-ECD-hFc [11]) [nM] | koff (hGITR-ECD-hFc [11]) [s⁻¹] | kon (hGITR-ECD-hFc [11]) [M⁻¹ s⁻¹]
3503-hab019 (antibody, V domains shown, also called 96A10H9; fully human anti-GITR antibody) VH: QVQLVESGGGVVQPGRSLRLSCAASGFTFSSYGMHWVRQAPGKGLEWVAVIWYAGSRKFYADSVEGRFTISRDNSKNTLYLQMSSVRPEDTAVYYCARGGSLDGGFFYYGMDVWGQGTTVTVSS VL: not shown | 4.42 | 0.281 | 10.9 | 0.166 | 0.222 | 0.53 | 0.25 | 0.418 | 0.0717 | 0.0791 | 0.115 | 0.11 | 0.401 | 0.000205 | 512000
3503-hab070 (antibody, V domains shown, also called 272G5E1; fully human anti-GITR antibody) VH: QVQLVESGGGVVQPGRSLRLSCAASGFTFSSYGMHWVRQAPGKGLEWVAVIWYETSNKFYVDSVKGRFTISRDNSKNTLYLQMNSLRAEDTAVYYCARYGASSGWYWYFDLWGRGTLVTVSS VL: DIQLTQSPSFLSASVGDRVTITCRASQGISSFLAWYQQKPGKAPKLLIYAASTLQSGVPSRFSGSGSGTEFTLTISSLQPEDFATYCCQQLNSYPFTFGQGTKLEIK | 2.55 | 0.276 | 5.78 | 0.0959 | 0.141 | 0.301 | 0.203 | 0.258 | 0.0529 | 0.0544 | 0.063 | 0.078 | 0.251 | 0.000185 | 737000
